B1: Protein S100-A9 (Homo sapiens), P06702 (parent)
chain: MTCKMSQLERNIETIINTFHQYSVKLGHPDTLNQGEFKELVRKDLQNFLKKENKNEKVIEHIMEDLDTNADKQLSFEEFIMLMARLTWASHEKMHEGDEGPGHHHKPGLGEGTP
partner: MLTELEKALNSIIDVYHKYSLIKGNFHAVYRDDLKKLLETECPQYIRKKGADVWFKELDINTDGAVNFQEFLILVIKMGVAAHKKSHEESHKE

Variants of: B1
Conditions: with S100A8, P05109

effect of a mutation on the interaction | Variant
decreasing interaction | MTSKMSQLERNIETIINTFHQYSVKLGHPDTLNQGEFKELVRKDLQNFLKKENKNEKVIEHIMEDLDTNADKQLSFEEFIMLMARLTWASHEKMHEGDEGPGHHHKPGLGEGTP [C3S]
